Measurements: patent publication US20230270894A1 (Regeneron, published 2023)
One block for each molecule: values may come before it.

What was measured:
[1] = target: human LAG3 (lymphocyte activation gene-3 protein, CD223), expressed on cells (human) (UniProt P18627); assay: cell-based or functional assay
[2] = target: T1, human LAG3 (lymphocyte activation gene-3 protein, CD223), expressed on cells (human, UniProt P18627 23-525); assay: cell-based or functional assay
T1 sequence: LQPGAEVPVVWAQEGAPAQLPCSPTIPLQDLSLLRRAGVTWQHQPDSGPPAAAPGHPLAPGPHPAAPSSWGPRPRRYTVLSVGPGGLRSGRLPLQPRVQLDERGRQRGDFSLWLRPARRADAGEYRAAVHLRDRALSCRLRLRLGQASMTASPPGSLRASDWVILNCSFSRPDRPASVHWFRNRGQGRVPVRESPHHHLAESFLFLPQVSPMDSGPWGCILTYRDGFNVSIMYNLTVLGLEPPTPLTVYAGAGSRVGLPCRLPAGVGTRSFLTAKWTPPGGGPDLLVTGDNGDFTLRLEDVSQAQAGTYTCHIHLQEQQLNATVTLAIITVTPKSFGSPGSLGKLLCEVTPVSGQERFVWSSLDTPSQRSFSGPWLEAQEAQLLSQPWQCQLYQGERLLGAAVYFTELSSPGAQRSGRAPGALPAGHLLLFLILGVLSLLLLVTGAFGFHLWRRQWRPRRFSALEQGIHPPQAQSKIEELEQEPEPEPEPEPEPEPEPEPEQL

ex vivo biodistribution, tumor uptake (AVERAGE % ID/G) in MC38/ova/LAG3 tumors of NCr nude mice, 6 days post-dosing [1]: 7.8 % ID/g
Molecule: 89Zr-DFO-conjugated isotype control antibody

Tumor-to-blood ratio (average), Raji/hPBMC tumors, day 6, protein dose 0.03 mg/kg [2]: 9.71 ratio
Tumor-to-blood ratio (average), Raji/hPBMC tumors, day 6, protein dose 0.1 mg/kg [2]: 5.44 ratio
Tumor-to-blood ratio (average), Raji/hPBMC tumors, day 6, protein dose 0.3 mg/kg [2]: 3.46 ratio
Tumor-to-blood ratio (average), Raji/hPBMC tumors, day 6, protein dose 5 mg/kg [2]: 1.1 ratio
B1: 89Zr-DFO-mAb1 (anti-LAG3 antibody H4sH15482P conjugated with p-SCN-Bn-DFO and radiolabeled with 89Zr) (antibody, V domains shown)
VH: QVQLVESGGGVVQPGRSLRLSCVASGFTFSSYGMHWVRQAPGKGLEWVAIIWYDGSNKYYADSVKGRFTISRDNSKNTQYLQMNSLRAEDTAVYYCASVATSGDFDYYGMDVWGQGTTVTVSS
VL: EIVLTQSPATLSLSPGERTTLSCRASQRISTYLAWYQQKPGQAPRLLIYDASKRATGIPARFSGSGSGTGFTLTISSLEPEDFAVYYCQQRSNWPLTFGGGTKVEIK
